We go through four molecules from PMC12365907, “https://orcid.org/0000-0002-7156-8846 Tungsirisurp Sireethorn Conceptualization Methodology Formal analysis Investigation Data curation Writing – original draft Writing – review & editing”.

Data set [1] has as its target T1, SARS-CoV-2 spike receptor binding domain (RBD) (SARS-CoV-2, UniProt P0DTC2 319-541). The experiment in a line: ELONA. The conditions noted are these: protein: commercial; label: 5'-biotin.
Data set [2] deals with T1, SARS-CoV-2 spike receptor binding …. The experiment in a line: fluorescent strand displacement from beads. The settings on record: protein: commercial.

B1: RBD-1 aptamer (ssDNA)
DNA: CAGCACCGACCTTGTGCTTTGGGAGTGCTGGTCCAAGGGCGTTAATGGACA
B1: in data set [1], binding was characterised by a dissociation constant (Kd) of 4.58 ± 1.15 nM.

B2: RBD-1/MM-T2 antisense duplex (mixed)
DNA 1: B1 DNA
DNA 2: GACGGTGCTG
In the case of B2, in data set [2], the binding result is given as “binds”.

B3: RBD-1/MM-T9 antisense duplex (mixed)
DNA 1: B1 DNA
DNA 2: GTCGGTGCAG
In the case of B3, in data set [2], the binding result was “binds”.

B4: RBD-1/CM antisense duplex (mixed)
DNA 1: B1 DNA
DNA 2: GTCGGTGCTG
In the case of B4, in data set [2], the binding result was “binds”.

A word on the Kd: it is the free concentration of one partner at which half of the binding sites on the other are occupied at equilibrium, for simple one-to-one binding. Low readings indicate a tighter complex, high ones a looser complex.
